Source: patent US20230050972A1 (MOMENTA PHARMACEUTICALS, published 2023)
Where “and” joins values, the source holds several entries; their conditions need not be identical. Equal entries are not always repeated.

T1: in-house generated I domain of α11β1 (human, UniProt Q9UKX5 159-349, limits assumed)
T1 construct: domain: I domain; also called human α11β1 I domain; α11β1 I Domain
T1 sequence (looked up): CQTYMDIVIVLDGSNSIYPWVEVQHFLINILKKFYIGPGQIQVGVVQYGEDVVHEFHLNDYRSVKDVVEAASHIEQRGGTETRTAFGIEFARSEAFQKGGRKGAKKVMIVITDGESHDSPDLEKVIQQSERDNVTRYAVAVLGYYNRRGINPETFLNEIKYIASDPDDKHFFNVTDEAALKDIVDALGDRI

B1: A11B1_16E10 (antibody, V domains shown)
VH: QSLEESGGDLVKPGASLTLTCRVSGFSFSSSYYMCWVRQAPGKGLEWIACIGTTRGSTYYATWAKGRFTISKISSTTVTLQMTSLTDADTATYFCARDATGYRINTIGLYFNLWGPGTLVTVSS
VL: AFELTQTPSSVEAAVGGTPTIKCQASQTIYSYLSWYQQKPGQPPKLLIYEASKLASGVPSRFSGSGSGTDYTLTISDLECADAATYYCQSYHGTASTEYNTFGGGTEVVVRG
notes: recombinant rabbit IgG, full chains
B2: 1994_01_C07 (antibody, V domains shown)
VH: QVQLVQSGAEVKKPGASVKVSCKASGYTFTSYGISWVRQAPGQGLEWMGWISAYNGNTNYAQKLQGRVTMTTDTSTSTAYMELRSLRSDDTAAYYCARVTGITGTTIDPWGQGTMVTVSS
VL: DIQMTQSPSSLSASVGDRVTITCRASQSISSYLNWYQQKPGKAPKLLIYDASSLESGVPSRFSGSGSGTEFTLTISSLQPDDFAVYYCQQYNNWPQTFGQGTKVEIK
notes: fully human, from phage display, scFv converted to IgG; kappa
B3: 24E4G6 (antibody, V domains shown)
VH: EVQLVESGGSLVQPGGSLKLSCVASGYTFSNYWMDWVRQSPGKSLEWIGEINTDGRRTNYAPSIKDRFTISRDNAKSTLYLQMSNVKSDDTAIYYCTILRVYPHYFDYWGQGVMVTVSS
VL: DVVMTQTPPSLSVAIGQSVSISCKSSQSLVYSDGETYLHWFLQSPGRSPKRLIYHVSNLGSGVPDRFSGTGSLTDFTLRISRVEAEDLGVYYCAQTTHFPPTFGAGTKLELK
notes: rat hybridoma mAb
B4: 40G10H11 (antibody, V domains shown)
VH: AVQLVESGGGLVQPGRSLKLSCAASRITFTDYYMAWVRQAPTKGLEWVATISSDGGDTFYRDSVKGRFTISRDNAKSTLYLQMVSLRSEDTATYYCSTDRGAQFGYWGQGTLVTVSS
VL: DIQMTQSPSFLSASVGDRVSINCKASQNVHENLNWYQQKLGEAPKRLIYNTNNLQTGIPSRFSGSGSGADYTLTISSLQPEDFATYFCLQHNAFPYTFGPGTKLELK
notes: rat hybridoma mAb
B5: 79E3E3 (antibody, V domains shown)
VH: QIQLVQSGPEVKKPGESVKISCKASGYTFTDYAMNWVKQAPGNGLKWMGWINTQTGKPTYADDFKQRFVFSLETSARTTYLQINNLNIEDTATYFCTRLGTGNTKGFAYWGQGTLVTVSS
VL: DILINQSPASLTVSAGERVTMSCKSSQSLLYSENNQDYLAWYQQKPGQFPKLLIYGASNRHTGVPDRFTGSGSGTDFTLTISSVQAEDLADYYCEQTYRYPFTFGSGTKLEIK
notes: rat hybridoma mAb

Columns and labels:
[1] = biological target: T2, α11β1 on human myofibroblasts (MF) (human, UniProt Q9UKX5 23-1188; P05556 21-798); test: FACS titration on human myofibroblasts
T2 construct: whole, on cells
T2 sequence (Q9UKX5 23-1188, chain 1 of 2): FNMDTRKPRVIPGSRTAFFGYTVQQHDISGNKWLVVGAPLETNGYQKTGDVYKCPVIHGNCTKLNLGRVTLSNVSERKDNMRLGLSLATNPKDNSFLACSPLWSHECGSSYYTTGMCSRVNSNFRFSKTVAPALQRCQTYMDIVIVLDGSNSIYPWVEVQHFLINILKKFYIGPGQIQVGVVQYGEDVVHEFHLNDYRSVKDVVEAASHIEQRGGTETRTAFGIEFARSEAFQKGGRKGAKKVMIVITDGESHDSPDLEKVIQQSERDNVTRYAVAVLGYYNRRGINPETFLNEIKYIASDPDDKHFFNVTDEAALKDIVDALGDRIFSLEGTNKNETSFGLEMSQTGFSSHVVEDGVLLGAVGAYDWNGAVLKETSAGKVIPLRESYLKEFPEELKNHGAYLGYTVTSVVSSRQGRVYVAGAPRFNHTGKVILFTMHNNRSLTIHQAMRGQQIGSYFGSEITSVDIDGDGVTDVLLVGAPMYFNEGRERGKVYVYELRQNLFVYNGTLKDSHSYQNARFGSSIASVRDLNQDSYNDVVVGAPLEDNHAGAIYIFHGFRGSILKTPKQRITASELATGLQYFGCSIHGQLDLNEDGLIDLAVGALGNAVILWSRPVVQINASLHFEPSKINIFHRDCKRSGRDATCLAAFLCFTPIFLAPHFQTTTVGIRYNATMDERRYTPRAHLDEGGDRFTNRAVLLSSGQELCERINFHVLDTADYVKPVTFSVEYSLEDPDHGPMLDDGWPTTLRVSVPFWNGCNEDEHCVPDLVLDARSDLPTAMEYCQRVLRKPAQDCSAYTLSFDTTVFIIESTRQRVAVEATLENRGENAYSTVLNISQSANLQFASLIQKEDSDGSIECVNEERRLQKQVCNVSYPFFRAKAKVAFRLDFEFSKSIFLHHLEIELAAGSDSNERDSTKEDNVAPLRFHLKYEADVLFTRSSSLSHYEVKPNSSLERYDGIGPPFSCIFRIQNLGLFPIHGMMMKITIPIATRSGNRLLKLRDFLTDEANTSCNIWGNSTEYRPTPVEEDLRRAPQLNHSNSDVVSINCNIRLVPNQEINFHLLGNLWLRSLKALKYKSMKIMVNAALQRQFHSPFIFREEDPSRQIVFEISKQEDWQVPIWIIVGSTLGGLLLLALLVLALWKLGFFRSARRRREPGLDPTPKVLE
T2 sequence (P05556 21-798, chain 2 of 2): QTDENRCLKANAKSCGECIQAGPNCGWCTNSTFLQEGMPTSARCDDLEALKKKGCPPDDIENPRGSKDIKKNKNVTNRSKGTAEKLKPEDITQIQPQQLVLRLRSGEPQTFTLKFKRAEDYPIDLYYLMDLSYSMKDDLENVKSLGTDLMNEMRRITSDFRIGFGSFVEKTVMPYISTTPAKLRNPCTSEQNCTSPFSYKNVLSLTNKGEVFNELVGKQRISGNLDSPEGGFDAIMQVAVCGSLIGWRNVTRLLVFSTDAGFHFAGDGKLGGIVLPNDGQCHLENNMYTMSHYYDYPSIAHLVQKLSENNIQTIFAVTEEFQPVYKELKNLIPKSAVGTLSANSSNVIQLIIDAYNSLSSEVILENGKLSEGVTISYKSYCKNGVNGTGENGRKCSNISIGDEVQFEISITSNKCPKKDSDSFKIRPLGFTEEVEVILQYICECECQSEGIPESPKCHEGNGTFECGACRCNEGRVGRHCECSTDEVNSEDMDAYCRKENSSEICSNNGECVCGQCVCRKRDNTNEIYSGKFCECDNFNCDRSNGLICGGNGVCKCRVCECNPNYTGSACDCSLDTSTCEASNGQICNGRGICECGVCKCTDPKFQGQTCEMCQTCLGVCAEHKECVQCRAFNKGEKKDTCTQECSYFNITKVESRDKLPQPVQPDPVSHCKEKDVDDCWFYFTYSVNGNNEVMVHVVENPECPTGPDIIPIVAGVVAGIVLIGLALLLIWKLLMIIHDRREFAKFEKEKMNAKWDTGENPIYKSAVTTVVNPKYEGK
Protocol: (§1) Human Pulmonary Fibroblasts (ScienCell) were cultured in complete Fibroblast Growth Medium (ScienCell) until 80% confluent in T-150 flasks. Cells were washed and harvested using Accutase. Cells were seeded into T-150 flasks at 7,500 cells/cm² in complete FGF and cultured for 72 hours. Cells were then washed and starved in serum reduced medium for 24 hours. After starvation, cells were treated with TGFβ-1 (R&D Systems) for 72 hours. Cells were harvested using Accutase and seeded in 96-well conical bottom plates. Cells were blocked with Heat Inactived Fetal Bovine Serum (Gibco) for 30 minutes at 4° C. Cells were then incubated with anti-α11 antibodies at the doses described in each figure for 30 minutes at 4° C. A human anti-α11 antibody (Creative BioLabs) was included as a positive control as well as the appropriate IgG isotype negative controls. Cells were washed twice and incubated with PE conjugated secondary antibodies specific to the IgG class of the anti-α11 antibodies being tested for 30 minutes at 4° C. Cells were washed twice and fixed in 1% PFA for 30 minutes. Cells were acquired on a FACS Verse […]. Data were analyzed by gating on single cells and determining the geometric Mean Fluorescence Intensity (gMFI) in the PE channel for each sample.

[2] = biological target: T3, human α11β1 expressed on the surface of CHO-K1 cells (human, UniProt Q9UKX5 23-1188); test: cell-based or functional assay
T3 sequence (Q9UKX5 23-1188): as the sequence (Q9UKX5 23-1188, chain 1 of 2) above

recombinant human α11β1 [3] = biological target: T4, recombinant human α11β1 (human, UniProt Q9UKX5 23-1141; P05556 21-728); test: SPR (Biacore T200), HIS-tagged human α11β1 captured on anti-HIS, single-cycle kinetics, 1:1 Langmuir fit
T4 construct: Coated in ELISA; ELISA and SPR material treated as one molecule; also called HIS-tagged human α11β1; integrin alpha 11 beta 1
T4 sequence (Q9UKX5 23-1141 limits assumed, chain 1 of 2): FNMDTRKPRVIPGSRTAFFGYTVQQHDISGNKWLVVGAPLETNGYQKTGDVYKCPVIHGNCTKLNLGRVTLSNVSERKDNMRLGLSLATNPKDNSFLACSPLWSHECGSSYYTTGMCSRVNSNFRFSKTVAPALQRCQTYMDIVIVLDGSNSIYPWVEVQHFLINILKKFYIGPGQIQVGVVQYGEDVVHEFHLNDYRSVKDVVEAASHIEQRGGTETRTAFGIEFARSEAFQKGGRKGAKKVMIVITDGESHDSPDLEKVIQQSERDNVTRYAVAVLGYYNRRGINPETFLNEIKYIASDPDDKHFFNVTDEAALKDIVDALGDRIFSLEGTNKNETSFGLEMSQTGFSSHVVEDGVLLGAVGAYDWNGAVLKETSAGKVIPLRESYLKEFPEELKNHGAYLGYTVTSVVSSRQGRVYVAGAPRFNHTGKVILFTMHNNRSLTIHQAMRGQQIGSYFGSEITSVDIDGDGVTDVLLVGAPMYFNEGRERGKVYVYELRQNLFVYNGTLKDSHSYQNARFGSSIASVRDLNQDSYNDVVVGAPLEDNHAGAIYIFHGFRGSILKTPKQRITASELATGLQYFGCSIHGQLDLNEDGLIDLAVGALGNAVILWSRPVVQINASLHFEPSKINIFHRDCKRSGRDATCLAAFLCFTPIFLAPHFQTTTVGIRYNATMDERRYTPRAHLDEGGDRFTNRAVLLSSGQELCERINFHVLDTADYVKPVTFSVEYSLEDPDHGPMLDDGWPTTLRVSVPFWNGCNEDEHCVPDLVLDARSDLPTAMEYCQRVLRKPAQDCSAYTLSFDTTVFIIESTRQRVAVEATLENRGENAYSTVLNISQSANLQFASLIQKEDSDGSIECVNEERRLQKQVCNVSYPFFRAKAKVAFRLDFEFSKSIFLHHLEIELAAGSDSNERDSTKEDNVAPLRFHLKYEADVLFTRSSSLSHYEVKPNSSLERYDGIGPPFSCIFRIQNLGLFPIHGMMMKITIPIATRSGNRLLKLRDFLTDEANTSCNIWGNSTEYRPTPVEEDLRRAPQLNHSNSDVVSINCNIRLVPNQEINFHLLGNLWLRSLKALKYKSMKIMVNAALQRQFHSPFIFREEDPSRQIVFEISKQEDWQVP
T4 sequence (P05556 21-728 limits assumed, chain 2 of 2): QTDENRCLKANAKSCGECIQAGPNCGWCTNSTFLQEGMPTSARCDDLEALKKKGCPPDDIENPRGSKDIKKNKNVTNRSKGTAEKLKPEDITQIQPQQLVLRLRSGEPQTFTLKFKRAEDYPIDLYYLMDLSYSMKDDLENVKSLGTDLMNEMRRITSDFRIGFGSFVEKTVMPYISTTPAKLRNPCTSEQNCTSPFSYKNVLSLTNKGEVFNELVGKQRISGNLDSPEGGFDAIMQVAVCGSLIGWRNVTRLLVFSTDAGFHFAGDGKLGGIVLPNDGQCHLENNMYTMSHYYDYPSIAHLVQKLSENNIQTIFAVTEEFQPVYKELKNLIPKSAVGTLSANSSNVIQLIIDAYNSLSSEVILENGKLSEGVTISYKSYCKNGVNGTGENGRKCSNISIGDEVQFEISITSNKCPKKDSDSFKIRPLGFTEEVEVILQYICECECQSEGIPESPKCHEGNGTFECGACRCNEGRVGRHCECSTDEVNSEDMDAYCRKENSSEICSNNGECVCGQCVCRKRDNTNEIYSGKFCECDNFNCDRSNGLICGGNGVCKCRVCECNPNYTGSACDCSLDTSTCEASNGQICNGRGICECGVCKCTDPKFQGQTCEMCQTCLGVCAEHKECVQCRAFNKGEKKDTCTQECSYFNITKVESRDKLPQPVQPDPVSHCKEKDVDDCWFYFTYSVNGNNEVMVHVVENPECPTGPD
Protocol: (§2) The affinity of antibodies for human α11β1 was measured by surface plasmon resonance assay (SPR). Affinity was measured at pH 7.6 and 25° C. with a Biacore T200 instrument. Anti-HIS antibody was immobilized on the SPR sensor surface using EDC/NHS covalent attachment. HIS-tagged human α11β1 was captured on the sensor surface and a single-cycle kinetics assay was used. Increasing concentrations of test antibody were injected in series over the sensor-bound α11β1. Dissociation was monitored for 1000 seconds. A sensor surface with only anti-HIS antibody and a series of blank injections were used to double-reference subtract the data. A 1:1 Langmuir model was fit to the data to estimate the kinetic association and dissociation constants. The affinity (equilibrium dissociation constant) of the interaction was calculated by dividing the kinetic dissociation constant by the kinetic association constant. Between injection cycles α11β1 and bound antibody were removed with an injection of 10 mM glycine at pH 1.5.

recombinant human α11β1 [4] = biological target: T4, recombinant human α11β1; test: SPR, HIS-tagged human α11β1 captured by anti-HIS, antibody as analyte, single-cycle kinetics
Protocol: as §2
The binding affinity of antibodies for the α11β1 Headpiece and α11β1 I Domain as measured by SPR is shown in FIG. 10A and FIG. 10B, respectively.

recombinant mouse α11β1 = biological target: T5, recombinant mouse α11β1 (mouse, UniProt P61622 23-1141; P09055 21-728, limits assumed); test: ELISA on recombinant mouse α11β1
T5 construct: also called murine α11β1
In short: (§3)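 Direct ELISA against human or mouse α11β1 coated at 0.25 μg/mL; antibody titration 1 h at room temperature, HRP-based colorimetric read-out at 450 nm.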

[5] = biological target: T3, human α11β1 expressed on the surface of …; test: FACS titration on Human CHO-α11 cells
Protocol: 200,000 cells (wild-type CHO-K1 cells or CHO-K1 cells expressing human α11) were incubated with each antibody at desired concentrations in FACS buffer for 30 min at 4° C. Then, the cells were washed with FACS buffer and incubated with secondary antibody at 1:100 dilution for 30 minutes at 4° C. Cells were then washed and fixed with 1% PFA in PBS for 20 minutes at room temperature; washed again and read on a cytometer in FACS buffer.

[6] = biological target: T1, in-house generated I domain of α11β1; test: SPR, single-cycle injections of 33, 100 and 300 nM over the a11b1 I Domain
Mouse CHO-α11 = Mouse CHO-α11 (mouse, UniProt P61622); test: FACS titration on Mouse CHO-α11 cells
Sequence of Mouse CHO-α11 (P61622 23-1188): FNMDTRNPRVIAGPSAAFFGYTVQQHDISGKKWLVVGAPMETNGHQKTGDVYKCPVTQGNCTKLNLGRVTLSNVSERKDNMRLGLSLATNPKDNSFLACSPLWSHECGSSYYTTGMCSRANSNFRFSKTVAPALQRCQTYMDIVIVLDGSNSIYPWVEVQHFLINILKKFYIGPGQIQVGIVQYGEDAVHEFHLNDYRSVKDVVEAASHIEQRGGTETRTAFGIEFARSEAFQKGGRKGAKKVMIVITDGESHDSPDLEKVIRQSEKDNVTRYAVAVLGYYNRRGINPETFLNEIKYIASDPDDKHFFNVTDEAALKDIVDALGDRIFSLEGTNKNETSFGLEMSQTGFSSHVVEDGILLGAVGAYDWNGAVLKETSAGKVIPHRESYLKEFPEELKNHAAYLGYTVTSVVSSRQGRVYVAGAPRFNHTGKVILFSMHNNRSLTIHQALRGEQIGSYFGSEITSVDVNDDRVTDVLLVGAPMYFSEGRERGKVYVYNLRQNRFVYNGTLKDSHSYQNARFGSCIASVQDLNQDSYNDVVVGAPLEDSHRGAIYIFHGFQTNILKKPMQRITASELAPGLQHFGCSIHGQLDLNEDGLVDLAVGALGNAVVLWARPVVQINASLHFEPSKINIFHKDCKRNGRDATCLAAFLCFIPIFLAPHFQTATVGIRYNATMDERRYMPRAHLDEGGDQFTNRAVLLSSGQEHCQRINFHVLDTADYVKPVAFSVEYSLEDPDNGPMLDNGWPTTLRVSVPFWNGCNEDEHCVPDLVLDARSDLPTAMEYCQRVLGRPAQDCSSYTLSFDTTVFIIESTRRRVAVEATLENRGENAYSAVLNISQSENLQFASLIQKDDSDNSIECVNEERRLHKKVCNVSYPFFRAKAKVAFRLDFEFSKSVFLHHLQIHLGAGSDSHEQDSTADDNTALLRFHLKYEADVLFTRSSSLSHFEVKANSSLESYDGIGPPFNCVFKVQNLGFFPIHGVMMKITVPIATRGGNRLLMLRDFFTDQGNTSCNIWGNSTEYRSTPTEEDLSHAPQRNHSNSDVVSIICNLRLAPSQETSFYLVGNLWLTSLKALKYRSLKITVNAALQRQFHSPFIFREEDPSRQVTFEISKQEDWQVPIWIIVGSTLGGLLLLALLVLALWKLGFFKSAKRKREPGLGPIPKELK

[7] = biological target: T1, in-house generated I domain of α11β1; test: ELISA on the human α11β1 I domain
recombinant human α11β1 [8] = biological target: T4, recombinant human α11β1; test: ELISA on recombinant human α11β1
In short: as §3

[9] = biological target: T2, α11β1 on human myofibroblasts (MF); test: FACS on human myofibroblasts
Protocol: as §1

[10] = biological target: T3, human α11β1 expressed on the surface of …; test: cell-based or functional assay; remark: listed apart in the source

Binder	EC50 [1]	IC50, inhibition of adhesion of CHO-α11 cells to rat tail type I collagen [2] [nM]	koff (recombinant human α11β1 [3]) [s⁻¹]	Kd (recombinant human α11β1 [4]) [nM]	binding result (recombinant mouse α11β1)	EC50 [5] [nM]	binding result [6]	EC50 (Mouse CHO-α11) [nM]	kon (recombinant human α11β1 [3]) [M⁻¹ s⁻¹]	binding result [7]	binding result (recombinant human α11β1 [8])	binding result [9]	IC50 of blocking cell adhesion to type I collagen [10] [nM]
B1	0.051 µg/mL and 0.3 nM	0.39	0.000234	0.048	no binding	0.35	no binding (tested: 300 nM)						
B2	0.53 µg/mL and 3.5 nM		0.000289	0.77		7.75	no binding (tested: 300 nM)	29	374000				
B3										no binding (tested: 2 µg/ml)	binds	binds	
B4										no binding (tested: 2 µg/ml)			
B5	0.5 µg/mL and 3.35 nM		0.000108	0.01	binds	7.3		3.5	1.07e+07				9.4
